Legend:
[1] = molecular target: HLA-A*29:02; assay: IEDB peptide-MHC binding, purified MHC/competitive/radioactivity; filed as Kd, often an IC50 or EC50 that approximates it; ≥ and ≤ were set here for values at or beyond the usual limits of such assays
[2] = molecular target: HLA-A*30:02; assay: as above
[3] = molecular target: HLA-A*26:01; assay: as above
[4] = molecular target: HLA-A*23:01; assay: as above
[5] = molecular target: HLA-A*24:02; assay: as above
[6] = molecular target: HLA-A*01:01; assay: as above
[7] = molecular target: HLA-B*58:01; assay: IEDB peptide-MHC binding, purified MHC/direct/fluorescence; filed as Kd, often an IC50 or EC50 that approximates it; ≥ and ≤ were set here for values at or beyond the usual limits of such assays; conditions: source organism: Yersinia pestis Antiqua
[8] = molecular target: HLA-B*57:01; assay: as above
[9] = molecular target: HLA-A*68:01; assay: IEDB peptide-MHC binding, purified MHC/competitive/radioactivity; filed as Kd, often an IC50 or EC50 that approximates it; ≥ and ≤ were set here for values at or beyond the usual limits of such assays; conditions: source organism: Vaccinia virus WR
[10] = molecular target: HLA-A*03:01; assay: as above; conditions: source organism: Vaccinia virus WR
[11] = molecular target: HLA-A*33:01; assay: as above; conditions: source organism: Vaccinia virus WR
[12] = molecular target: HLA-A*31:01; assay: as above; conditions: source organism: Vaccinia virus WR
[13] = molecular target: HLA-A*11:01; assay: as above; conditions: source organism: Vaccinia virus WR
[14] = molecular target: HLA-B*44:02; assay: as above
[15] = molecular target: HLA-B*44:03; assay: as above; conditions: source organism: Dengue virus 1 Singapore/S275/1990
[16] = molecular target: HLA-B*40:01; assay: as above
[17] = molecular target: HLA-B*15:01; assay: as above
[18] = molecular target: HLA-B*46:01; assay: IEDB peptide-MHC binding, purified MHC/direct/fluorescence; filed as Kd, often an IC50 or EC50 that approximates it; ≥ and ≤ were set here for values at or beyond the usual limits of such assays; conditions: source organism: West Nile virus
[19] = molecular target: HLA-B*53:01; assay: IEDB peptide-MHC binding, purified MHC/competitive/radioactivity; filed as Kd, often an IC50 or EC50 that approximates it; ≥ and ≤ were set here for values at or beyond the usual limits of such assays; conditions: source organism: Dengue virus 4 Philippines/H241/1956
[20] = molecular target: HLA-A*30:01; assay: as above; conditions: source organism: Vaccinia virus WR
[21] = molecular target: HLA-B*15:01; assay: IEDB peptide-MHC binding, purified MHC/competitive/fluorescence; filed as Kd, often an IC50 or EC50 that approximates it; ≥ and ≤ were set here for values at or beyond the usual limits of such assays; conditions: source organism: Escherichia coli B171
[22] = molecular target: HLA-A*02:01; assay: as above; conditions: source organism: Escherichia coli B171
[23] = source organism: SARS coronavirus Tor2
[24] = source organism: Vaccinia virus WR
[25] = source organism: Dengue virus 1 Singapore/S275/1990
[26] = source organism: Dengue virus 3 Martinique/1243/1999
[27] = source organism: Dengue virus 2 Jamaica/1409/1983
[28] = source organism: Dengue virus 4 Philippines/H241/1956
[29] = source organism: Mammarenavirus machupoense

KWDLIISDMY
Kd [1, 23]: 253 nM
Kd [2, 23]: 85.9 nM
Kd [3, 23]: ≥ 20700 nM
Kd [4, 23]: ≥ 70000 nM
Kd [5, 23]: ≥ 39400 nM
Kd [6, 23]: ≥ 90900 nM

ASSALDAHF
Kd [7]: 4.4 nM
Kd ([8]; source organism: Yersinia pestis Antiqua): 396 nM

FIESSICLDY
Kd [1, 24]: ≥ 40500 nM
Kd [9]: 964 nM
Kd [10]: 2920 nM
Kd [11]: 5650 nM
Kd [12]: 10100 nM
Kd [13]: 3930 nM

AENHHHATML
Kd [14, 25]: 55.7 nM
Kd [15]: 189 nM
Kd [16, 25]: 39.9 nM

HTSEHGGRAY
Kd [2, 26]: ≥ 44100 nM
Kd [17, 26]: 146 nM
Kd [3, 26]: 163 nM
Kd [6, 26]: 1030 nM

GECIKTCVF
Kd [17, 24]: 115 nM

LQGRGPLKLF
Kd [17, 27]: 135 nM

WMVHRQWFF
Kd [4, 26]: 125 nM
Kd [5, 26]: 835 nM

LVRSTVSSI
Kd ([17]; source organism: Vaccinia virus Copenhagen): 527 nM

VSYSTFCLG
Kd [17, 24]: 710 nM

LMNDPGAPW
Kd [18]: 8980 nM

MTDKTPVHSW
Kd [19]: 891 nM
Kd [14, 28]: 1410 nM

TVFIRFPHY
Kd [20]: 1270 nM
Kd [17, 24]: 123 nM

IWYMWLGARF
Kd [4, 27]: 8.27 nM
Kd [5, 27]: 6.14 nM

WENNIKLTV
Kd [16, 26]: 120 nM

EIKTGISSF
Kd [17, 24]: 89.9 nM

DPAKAYKDY
Kd [1, 23]: 446 nM
Kd [2, 23]: 9270 nM
Kd [3, 23]: ≥ 85500 nM
Kd [4, 23]: ≥ 77800 nM
Kd [5, 23]: ≥ 77600 nM
Kd [6, 23]: ≥ 119000 nM

NSKVQIGEY
Kd [1, 23]: 2270 nM
Kd [2, 23]: 57.2 nM
Kd [3, 23]: 235 nM
Kd [4, 23]: ≥ 77800 nM
Kd [5, 23]: ≥ 34800 nM
Kd [6, 23]: ≥ 37700 nM

ESASKSASVY
Kd [1, 23]: 374 nM
Kd [2, 23]: 659 nM
Kd [3, 23]: 286 nM
Kd [4, 23]: ≥ 70000 nM
Kd [5, 23]: ≥ 70300 nM
Kd [6, 23]: 300 nM

KIEELFYSY
Kd [1, 23]: 39.2 nM
Kd [2, 23]: 11.6 nM
Kd [3, 23]: ≥ 81500 nM
Kd [4, 23]: ≥ 23900 nM
Kd [5, 23]: ≥ 20700 nM
Kd [6, 23]: 540 nM

NPAQEDDQY
Kd [19]: 746 nM

LAIPATEFF
Kd [17, 24]: 4.16 nM

LGRANITHF
Kd [17, 24]: 6.73 nM

GERSRCYSVY
Kd [1, 29]: ≥ 71400 nM
Kd [2, 29]: 4510 nM
Kd [3, 29]: ≥ 69700 nM
Kd [4, 29]: ≥ 49100 nM
Kd [5, 29]: ≥ 70300 nM
Kd [6, 29]: ≥ 70400 nM

FEEYKRSGI
Kd [16, 28]: 1290 nM

IFFASFYYI
Kd [1, 23]: 28.1 nM
Kd [2, 23]: 5130 nM
Kd [3, 23]: 1800 nM
Kd [4, 23]: 6.45 nM
Kd [5, 23]: 12.2 nM
Kd [6, 23]: 1300 nM

LSKNTFYLF
Kd [17, 24]: 14.2 nM

EQKAYVPAM
Kd [17, 24]: 0.773 nM

VTYNCCDDDY
Kd [1, 23]: 4490 nM
Kd [2, 23]: 80 nM
Kd [3, 23]: 18500 nM
Kd [4, 23]: ≥ 70000 nM
Kd [5, 23]: ≥ 70300 nM
Kd [6, 23]: 32.6 nM

KIMKVVNRW
Kd ([8]; source organism: Yellow fever virus): 131 nM

ELADTSLSGY
Kd [1, 23]: 89.2 nM
Kd [2, 23]: 76.7 nM
Kd [3, 23]: 24.5 nM
Kd [4, 23]: ≥ 70000 nM
Kd [5, 23]: ≥ 70300 nM
Kd [6, 23]: 73.6 nM

VQYRGLYQI
Kd [21]: 107 nM
Kd [22]: 125 nM

RMAILGETAW
Kd [14, 28]: 1620 nM
Kd [17, 28]: 253 nM

VEETNMITLL
Kd ([16]; source organism: Dengue virus 4 Dominica/814669/1981): 25 nM
